Experimental findings from the domain aggregation screens of Martell et al. (2025) are described below.

This data set is described as follows: soluble fraction after stress (log2 fold change); higher = more stays soluble; pooled small domains, quantitative proteomics. The note with it: stress: pH 4. In a few lines: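 Aggregation propensity is estimated from the fold change in each domain's soluble amount after acid stress. Pooled small-domain libraries were stressed at pH 4, and higher log2 values mean more stayed soluble.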
As to “HMRRARVAGKGHFTGEDAMAVYRELEALFGETETLYLPGHRPFEAVLSKLALIGVPEKNTVPYTFAFVET”, the “soluble fraction (log2)” value was -1.09.

For the sequence “HMRREIRLTVTEEIVLMKFLLTQIPYKNRDNFKTLLNDRQIRVNGSVVTWYNHPLKPGQEVTIGWFKM”, the “soluble fraction (log2)” value is -0.628.

Take “HMRRPRGVFNLVPGKRFGFITPDGGGEDVFAHLANVRAGHVAEDRNAVEYGIGRGPDGRDQAVDIVPMP”: the “soluble fraction (log2)” value came to 0.00891.

On to “HMRRQRNPEIFDQLVNKFHFTFTQTQQLKQLIKRWHMLFPGKSLKSAIQGYKSAKEILTYINDSLDVVE”, for which the “soluble fraction (log2)” value amounted to 0.0668.

In the case of “HMRRRTLRQGATGSDVHAVQRLLNVDGAGLRTDGIFGPATERAVIAYQRKHGLAVDGVVGRETWTALLG”, the “soluble fraction (log2)” value was -0.0548.

In the case of “HMRRSDLVTQGDEILKRLQWNQQQAKDFLNQHLKASSRQQLTDEQLLNFNMLLEEQLVKSME”, the “soluble fraction (log2)” value is -0.0311.

As for “HMRRSLIGPTVRERRRALGITQSRLAAEVGISASYLNLIEGDKRNIGGALLQRIAGALGLALD”, the “soluble fraction (log2)” value came out at 0.0185.

Consider “HMRRTVIVTAAHAEIRERPDANAPLVFSAEQKVSLDYQETAPGGWVKVRHRDGQSGYVRTNQI”, for which the “soluble fraction (log2)” value is -0.159.

For the sequence “HMRRVGTALNRSHKVSYGESIQSIAARYNVNPTMLREYNRLKPEATITPGQILRIPPATIAS”, the “soluble fraction (log2)” value is -0.195.

Take “HMRRVRRTRRLLQDGLLGLMQHKAVADISVKELAEAADVARATVYVHFKDPADVLHQLEQGLY”: the “soluble fraction (log2)” value was -0.151.

Regarding “HMRSDHVFTSHLARRDKYISELESLSDSARDDHIQTIKEEDEYLLKYRRTRNLFGIPLNDEMKQFEPFNY”, the “soluble fraction (log2)” value was -1.16.

As for “HMRSEILNLLREKSPQPVSGQDLANHFGITRTAVWKHIQSLKKMGYGIEAYTKKGYVLVSVPN”, the “soluble fraction (log2)” value amounted to 0.175.

For the sequence “HMRSGEDESFSAGLLEYPHYTRPAEFEGHRIPDILTSGDHAKVDAWRQEMSEHITRERRPDLWEMYKKK”, the “soluble fraction (log2)” value came out at 0.0228.

As to “HMRSHLSANLQRLRHIAGLTQKDLALAANLPRATLASLEQGEANPRLDTLLAVASALQVGLDELIAAP”, the “soluble fraction (log2)” value was -1.1.

On to “HMRSIMAVSNYRHKKILEMVYQRKSVSADELAAEFGVSKITIRRDLDTLAMDKLLERTRGGAISISD”, for which the “soluble fraction (log2)” value is -0.128.

On to “HMRSRHYRFSTPFLDRLIAEIDWNSDNALSIFNQKLVHFDFLKYFSAIQPGSIVEIENLNFIWTGKRLEAH”, for which the “soluble fraction (log2)” value was -0.71.

“HMRSVLSDEIYLLIRKMIFNYEILPGAKVNIDALAKKLDVSQTPVREALSRLESDGLIVKEPLKGFRATD”: the “soluble fraction (log2)” value is -0.239.

As for “HMRSVPNVAGLGMDGAAFQLGKAGFAIGTITPADDPKAVVGSIQRTEPAAGTVADRDTVVNLFQV”, the “soluble fraction (log2)” value was 0.22.

For “HMRSVTLQTDREGDILYVDGKQIGVSPQRLELSYGVHTIRAERGEQHTEKELEVTETGGETVVTLGFG”, the “soluble fraction (log2)” value is -0.0908.

With “HMRSYTPGSAFRLSSVPVYNAETGPSIGVRSGTYYIHSLPVSNGRIRMTNLISRVGKPGQVSFWVEISR”, the “soluble fraction (log2)” value worked out at 0.0269.

As to “HMRTAELEVWDDDELNDVVKLIQNNHNINTLKLRFQENVSFSGLSLIAAVLTKQSIILEIEY”, the “soluble fraction (log2)” value is -1.32.

In the case of “HMRTDQYHYLAWKQVADELGIPFDEQVNERLRGVSRMASFDIILERYDGTMSDEEKIHWTDKKNEIYKSM”, the “soluble fraction (log2)” value was -1.68.

Regarding “HMRTGLSGMIGEIGIVKQAIDPEGKVAVHGELWKARADVALAAGQTVRVVAVDGLTMTVEATDSK”, the “soluble fraction (log2)” value came to 0.0837.

In the case of “HMRTIPDALIGRPYESVETAIVLEGLQAKRTEVFHPTIRPGTVIRLEPTSGSELLRDGVVEIFVSQGPETT”, the “soluble fraction (log2)” value was -1.47.

In the case of “HMRTITIDDSIAGKRLDEALTLLGAESSRTKVKLLFSSPNGVLVNGEKEKPHYRVEAGDVIQFGELPKK”, the “soluble fraction (log2)” value was -0.104.

For the sequence “HMRTKEGLASQLEKIPGIGPVKRKALLKKFGSIDAIAAASKEELMLTDGITSSLADAIRDYF”, the “soluble fraction (log2)” value turned out to be 0.391.

As to “HMRTLKDSTEYLIRSMLLRGEMKVGEIYSANALAKELNISNSPVREAMMSLVDRGLLENVRNRGFRVV”, the “soluble fraction (log2)” value was -0.115.

As for “HMRTLRENIMDYFKQQTIIQKSSVILLPMSKRQLADYFGVQRPSLFRELKKLKEEGIIEINNRTITIK”, the “soluble fraction (log2)” value is -0.0293.
